Results taken from PMC2767340.
Where a chain is given by its changes, count along the chain named. Where two headings read alike, the source gives them in different places.

Columns and labels:
[1] = molecular target: ΔEspP peptide labeled with carboxyfluorescein; test: fluorescence polarisation
[2] = molecular target: ΔEspP peptide labeled with carboxyfluorescein; test: fluorescence polarisation; remark: listed apart in the source
[3] = molecular target: ΔEspP peptide labeled with carboxyfluorescein; test: fluorescence polarisation; remark: listed apart in the source
[4] = molecular target: ΔEspP peptide labeled with carboxyfluorescein; test: fluorescence polarisation; remark: listed apart in the source
[5] = molecular target: T1, FtsY (Escherichia coli), P10121; test: other fluorescence titration; details: remark: other sources report otherwise
T1 chain: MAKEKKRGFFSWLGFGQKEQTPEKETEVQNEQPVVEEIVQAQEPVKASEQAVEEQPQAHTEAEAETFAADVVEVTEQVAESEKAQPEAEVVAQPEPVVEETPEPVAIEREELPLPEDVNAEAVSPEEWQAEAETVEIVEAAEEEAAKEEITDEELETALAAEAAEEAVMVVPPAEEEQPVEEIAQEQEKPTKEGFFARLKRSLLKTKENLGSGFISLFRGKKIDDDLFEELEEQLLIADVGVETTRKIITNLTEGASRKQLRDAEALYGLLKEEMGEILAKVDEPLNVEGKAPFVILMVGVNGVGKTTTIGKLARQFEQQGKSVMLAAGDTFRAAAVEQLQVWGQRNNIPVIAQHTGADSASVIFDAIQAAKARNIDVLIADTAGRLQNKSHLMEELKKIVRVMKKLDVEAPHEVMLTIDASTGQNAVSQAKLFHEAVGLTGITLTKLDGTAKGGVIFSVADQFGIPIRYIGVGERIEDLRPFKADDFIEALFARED

B1: Ffh (natural protein)
chain: MFDNLTDRLSRTLRNISGRGRLTEDNVKDTLREVRMALLEADVALPVVREFINRVKEKAVGHEVNKSLTPGQEFVKIVRNELVAAMGEENQTLNLAAQPPAVVLMAGLQGAGKTTSVGKLGKFLREKHKKKVLVVSADVYRPAAIKQLETLAEQVGVDFFPSDVGQKPVDIVNAALKEAKLKFYDVLLVDTAGRLHVDEAMMDEIKQVHASINPVETLFVVDAMTGQDAANTAKAFNEALPLTGVVLTKVDGDARGGAALSIRHITGKPIKFLGVGEKTEALEPFHPDRIASRILGMGDVLSLIEDIESKVDRAQAEKLASKLKKGDGFDLNDFLEQLRQMKNMGGMASLMGKLPGMGQIPDNVKSQMDDKVLVRMEAIINSMTMKERAKPEIIKGSRKRRIAAGCGMQVQDVNRLLKQFDDMQRMMKKMKKGGMAKMMRSMKGMMPPGFPGR
- Kd [1]: 19.6 µM
- Kd [2]: 1.5 µM
- Kd [3]: 5.5 µM
- Kd [4]: 21.6 µM

B2: Ffh, P0AGD7 1-453 (natural protein)
chain: B1 chain
- fold change of the association rate with C12E8 against without (with 4.5S RNA) [5]: 70 fold
- fold change of the association rate with ΔEspP* against without (with 4.5S RNA) [5]: > 40 fold
- fold change of the dissociation rate with C12E8 against without (with 4.5S RNA) [5]: 23 fold
- fold change of the dissociation rate with ΔEspP* against without (with 4.5S RNA) [5]: 10 fold
